Results from article PMC2290880 (The Journal of Cell Biology, 1993).

Molecular target: T1, Sec63p (Saccharomyces cerevisiae (endogenous in …, UniProt P14906 1-663))
T1 sequence (looked up): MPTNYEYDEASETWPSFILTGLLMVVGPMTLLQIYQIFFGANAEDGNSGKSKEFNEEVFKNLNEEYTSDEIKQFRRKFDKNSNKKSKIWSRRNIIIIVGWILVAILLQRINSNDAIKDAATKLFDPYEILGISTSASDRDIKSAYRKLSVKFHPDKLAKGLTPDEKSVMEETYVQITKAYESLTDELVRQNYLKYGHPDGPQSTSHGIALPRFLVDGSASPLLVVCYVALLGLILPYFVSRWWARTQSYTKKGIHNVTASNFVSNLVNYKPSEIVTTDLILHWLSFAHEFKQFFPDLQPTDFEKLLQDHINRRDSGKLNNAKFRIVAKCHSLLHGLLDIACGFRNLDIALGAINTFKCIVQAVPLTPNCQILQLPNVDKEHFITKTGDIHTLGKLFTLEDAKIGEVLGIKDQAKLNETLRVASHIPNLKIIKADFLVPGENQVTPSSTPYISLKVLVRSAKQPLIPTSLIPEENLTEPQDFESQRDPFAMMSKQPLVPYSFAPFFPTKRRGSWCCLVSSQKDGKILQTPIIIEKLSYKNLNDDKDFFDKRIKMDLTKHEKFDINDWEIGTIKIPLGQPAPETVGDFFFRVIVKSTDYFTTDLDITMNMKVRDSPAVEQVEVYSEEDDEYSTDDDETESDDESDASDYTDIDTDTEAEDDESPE
Assay: co-elution on hydroxylapatite chromatography

- stoichiometry N: 1.4 Sec63p per BiP
B1: BiP/Kar2p (natural protein)
chain: not shown
